Data published in publication PMC6555833, “APC/C^CDH1 synchronizes ribose-5-phosphate levels and DNA synthesis to cell cycle progression” (Nature Communications, 2019).

T1: purified recombinant TKT (human, UniProt P29401 1-623)
T1 chain: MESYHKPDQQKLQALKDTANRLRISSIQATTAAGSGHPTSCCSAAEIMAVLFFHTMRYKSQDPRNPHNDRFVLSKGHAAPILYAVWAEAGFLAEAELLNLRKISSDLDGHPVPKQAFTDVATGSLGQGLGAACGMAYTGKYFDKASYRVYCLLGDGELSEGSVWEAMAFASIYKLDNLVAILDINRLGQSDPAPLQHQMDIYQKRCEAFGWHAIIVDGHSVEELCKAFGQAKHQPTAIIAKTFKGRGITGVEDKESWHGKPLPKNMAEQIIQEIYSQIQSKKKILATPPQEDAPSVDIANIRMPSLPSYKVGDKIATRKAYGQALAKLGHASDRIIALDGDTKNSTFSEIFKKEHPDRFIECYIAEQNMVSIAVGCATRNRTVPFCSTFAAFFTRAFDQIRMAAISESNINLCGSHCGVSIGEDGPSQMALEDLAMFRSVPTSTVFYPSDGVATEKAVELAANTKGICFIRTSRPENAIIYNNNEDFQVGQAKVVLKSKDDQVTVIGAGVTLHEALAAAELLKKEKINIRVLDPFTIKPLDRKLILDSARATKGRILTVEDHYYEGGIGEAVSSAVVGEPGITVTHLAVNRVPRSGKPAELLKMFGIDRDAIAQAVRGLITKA

B1: purified recombinant TKTL1 (natural protein, human, UniProt P51854 1-596, looked up)
chain: MADAEARAEFPEEARPDRGTLQVLQDMASRLRIHSIRATCSTSSGHPTSCSSSSEIMSVLFFYIMRYKQSDPENPDNDRFVLAKRLSFVDVATGWLGQGLGVACGMAYTGKYFDRASYRVFCLMSDGESSEGSVWEAMAFASYYSLDNLVAIFDVNRLGHSGALPAEHCINIYQRRCEAFGWNTYVVDGRDVEALCQVFWQASQVKHKPTAVVAKTFKGRGTPSIEDAESWHAKPMPRERADAIIKLIESQIQTSRNLDPQPPIEDSPEVNITDVRMTSPPDYRVGDKIATRKACGLALAKLGYANNRVVVLDGDTRYSTFSEIFNKEYPERFIECFMAEQNMVSVALGCASRGRTIAFASTFAAFLTRAFDHIRIGGLAESNINIIGSHCGVSVGDDGASQMALEDIAMFRTIPKCTIFYPTDAVSTEHAVALAANAKGMCFIRTTRPETMVIYTPQERFEIGQAKVLRHCVSDKVTVIGAGITVYEALAAADELSKQDIFIRVIDLFTIKPLDVATIVSSAKATEGRIITVEDHYPQGGIGEAVCAAVSMDPDIQVHSLAVSGVPQSGKSEELLDMYGISARHIIVAVKCMLLN
notes: wild-type transketolase-like protein 1 (TKTL1), human; in vector pSJ3; also called TKTL1 monomer; source: E. coli BL21 (DE3)pLysS, purified (nickel column)
B2: purified recombinant TKT (natural protein, human, UniProt P29401 1-623, looked up)
chain: T1 chain
notes: wild-type transketolase (TKT), human; in vector pSJ3; also called TKT homodimer; TKT-TKT; source: E. coli BL21 (DE3)pLysS, purified (nickel column)

Legend:
[1] = biological target: T1, purified recombinant TKT; experiment: SPR
[2] = biological target: B2; experiment: SPR; Biacore T200; TKT amine-coupled to a CM5 chip in 10 mM sodium acetate pH 5.5; TKTL1 in a series of concentrations starting at 65.9 nM; PBS buffer; details: both partners purified
[3] = biological target: the molecule itself; experiment: native gel or EMSA; native gel electrophoresis of TKT, TKTL1-TKT and TKTL1
[4] = biological target: the molecule itself; experiment: SPR
[5] = biological target: the molecule itself; experiment: SPR; Biacore T200; TKT immobilised on a CM5 chip; constant of the TKT-TKT homodimer; the analyte series is not described

| koff [1] [s⁻¹] | Kd [2] [nM] | Binder | stoichiometry N [3] | koff [4] [s⁻¹] | Kd [5] [nM] |
| --- | --- | --- | --- | --- | --- |
| 0.0044 | 146 | B1 | – | – | – |
| – | – | B2 | 2 | 0.00777 | 118 |
